Paper PMC5897047
Numbering of substitutions follows the chain as printed. Names may count otherwise.

B1: yeast non hypusine-containing eIF5A (eIF5A-Lys), wild type (natural protein)
chain: MSDEEHTFETADAGSSATYPMQCSALRKNGFVVIKSRPCKIVDMSTSKTGKHGHAKVHLVAIDIFTGKKLEDLSPSTHNMEVPVVKRNEYQLLDIDDGFLSLMNMDGDTKDDVKAPEGELGDSLQTAFDEGKDLMVTIISAMGEEAAISFKEAARTD
B2: non hypusine-containing eIF5A from mutant tif51A-4 (K86A/R87A/E89A) (natural protein)
chain: B1 chain with K86A, R87A, E89A
B3: yeast hypusine-containing eIF5A (eIF5A-Hyp), wild type (natural protein)
chain: B1 chain
modifications: hypusine at Lys51
B4: hypusine-containing eIF5A from mutant tif51A-4 (K86A/R87A/E89A) (natural protein)
chain: B1 chain with K86A, R87A, E89A
modifications: hypusine at Lys51

What follows are binders tested against yeast 80S ribosome (S. cerevisiae (endogenous in yeast)) (UniProt P26321) (assay: fluorescence polarisation).
Sequence of UniProt P26321 (P26321 whole entry, looked up): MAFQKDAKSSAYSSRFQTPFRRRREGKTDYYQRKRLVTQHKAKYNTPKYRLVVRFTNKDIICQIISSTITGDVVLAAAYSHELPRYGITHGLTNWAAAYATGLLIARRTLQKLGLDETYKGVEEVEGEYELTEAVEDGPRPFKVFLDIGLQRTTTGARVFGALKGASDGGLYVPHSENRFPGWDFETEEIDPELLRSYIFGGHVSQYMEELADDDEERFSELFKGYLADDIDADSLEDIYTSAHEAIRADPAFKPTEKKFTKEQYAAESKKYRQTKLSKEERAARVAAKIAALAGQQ

Compared with B1, B2 is 1.6-fold higher in Ki: 238 nM for the first, 388 nM for the second. The first binds more tightly here.

Going from B3 to B4, the Ki rises from 8 nM to 171 nM (21-fold). The first binds more tightly here.
